Here are results for two proteins from paper PMC8395503, “Epitope Mapping of Monoclonal Antibodies to Calreticulin Reveals That Charged Amino Acids Are Essential for Antibody Binding” (Antibodies, 2021).

The series deals with the molecule itself. Put plainly: native gel or EMSA; native PAGE, 4-20% Tris-glycine gel, native running buffer pH 7.5, Coomassie staining; samples in native sample buffer heated 10 min at 57 °C (recombinant CRT with or without 3 days at 42 °C). On the technique in general: A gel shift assay detects complexes by their altered migration in electrophoresis.

B1: full-length recombinant wild-type calreticulin (natural protein, human, UniProt P27797 18-417, looked up)
chain: EPAVYFKEQFLDGDGWTSRWIESKHKSDFGKFVLSSGKFYGDEEKDKGLQTSQDARFYALSASFEPFSNKGQTLVVQFTVKHEQNIDCGGGYVKLFPNSLDQTDMHGDSEYNIMFGPDICGPGTKKVHVIFNYKGKNVLINKDIRCKDDEFTHLYTLIVRPDNTYEVKIDNSQVESGSLEDDWDFLPPKKIKDPDASKPEDWDERAKIDDPTDSKPEDWDKPEHIPDPDAKKPEDWDEEMDGEWEPPVIQNPEYKGEWKPRQIDNPDYKGTWIHPEIDNPEYSPDPSIYAYDNFGVLGLDLWQVKSGTIFDNFLITNDEAYAEEFGNETWGVTKAAEKQMKDKQDEEQRLKEEEEDKKRKEEEEAEDKEDDEDKDEDEEDEEDKEEDEEEDVPGQAKDEL
notes: calreticulin, human, Prot id P27797; called full-length recombinant wt CRT; Oligomers formed after heat treatment (57 °C 10 min, with or without 42 °C for 3 days); also called CRT; wt CRT; source: recombinant, produced using standard protocols and purified as previously described by Čiplys and colleagues [39]
For B1, the binding result is recorded as “binds”.

B2: calreticulin purified from human placenta (natural protein, UniProt P27797 18-417, looked up)
chain: B1 chain
notes: calreticulin, human, Prot id P27797, purified from placenta; Heat-treated (57 °C 10 min) before native PAGE; also called CRT; human CRT purified from human placenta; source: purified from human placenta
As to B2, the binding result is “binds”.
